# Laboratory results: the supplement of paper PMC10567573
# B1: FBXO3 (parent)
# chain: AGGFQQRQGLKYCLPLTFCIHTGL
# Variants of: B1
# Test: protein stability index of a GFP-peptide fusion (GPS, HEK-293T) (PSI 1-6); higher = more stable
# Conditions: c terminus: a fixed tail appended
# 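Note: lentivirally expressed fusions sorted by FACS into six bins by GFP to DsRed ratio, PSI derived from sequencing read proportions per bin multiplied by bin number.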
row,Variant,protein stability index
1,AGGFQQRGGLKYCLPLTFCIHTGL [Q8G],3.4
2,AGGFQQRWGLKYCLPLTFCIHTGL [Q8W],2.88
3,AGGFQQRYGLKYCLPLTFCIHTGL [Q8Y],2.17
4,AGGFQQRRGLKYCLPLTFCIHTGL [Q8R],2.99
5,AGGFQQRIGLKYCLPLTFCIHTGL [Q8I],2.51
6,AGGFQQRVGLKYCLPLTFCIHTGL [Q8V],2.22
7,AGGFQQRCGLKYCLPLTFCIHTGL [Q8C],3.53
8,AGGFQQRFGLKYCLPLTFCIHTGL [Q8F],2.59
9,AGGFQQRHGLKYCLPLTFCIHTGL [Q8H],2.66
10,AGGFQQRDGLKYCLPLTFCIHTGL [Q8D],1.88
11,AGGFQQRMGLKYCLPLTFCIHTGL [Q8M],2.24
12,AGGFQQRAGLKYCLPLTFCIHTGL [Q8A],2.82
13,AGGFQQRLGLKYCLPLTFCIHTGL [Q8L],2.56
14,AGGFQQRTGLKYCLPLTFCIHTGL [Q8T],3.56
15,AGGFQQRKGLKYCLPLTFCIHTGL [Q8K],3.23
16,AGGFIQRQGLKYCLPLTFCIHTGL [Q5I],2.17
17,AGGFPQRQGLKYCLPLTFCIHTGL [Q5P],1.71
18,AGGFHQRQGLKYCLPLTFCIHTGL [Q5H],1.87
19,AGGFVQRQGLKYCLPLTFCIHTGL [Q5V],2.33
20,AGGFRQRQGLKYCLPLTFCIHTGL [Q5R],2.27
21,AGGFFQRQGLKYCLPLTFCIHTGL [Q5F],1.98
22,AGGFYQRQGLKYCLPLTFCIHTGL [Q5Y],3.66
23,AGGFCQRQGLKYCLPLTFCIHTGL [Q5C],3.02
24,AGGFWQRQGLKYCLPLTFCIHTGL [Q5W],3.08

row,Variant,protein stability index
1,AGGFLQRQGLKYCLPLTFCIHTGL [Q5L],2.32
2,AGGFSQRQGLKYCLPLTFCIHTGL [Q5S],3.59
3,AGGFGQRQGLKYCLPLTFCIHTGL [Q5G],3.92
4,AGGFAQRQGLKYCLPLTFCIHTGL [Q5A],3.05
5,AGGFTQRQGLKYCLPLTFCIHTGL [Q5T],2
6,AGGFDQRQGLKYCLPLTFCIHTGL [Q5D],2.34
7,AGGFKQRQGLKYCLPLTFCIHTGL [Q5K],2.88
8,AGGFMQRQGLKYCLPLTFCIHTGL [Q5M],2.17
9,AGGFNQRQGLKYCLPLTFCIHTGL [Q5N],2.77
10,AGSFQQRQGLKYCLPLTFCIHTGL [G3S],2.44
11,AGPFQQRQGLKYCLPLTFCIHTGL [G3P],1.51
12,AGYFQQRQGLKYCLPLTFCIHTGL [G3Y],3.02
13,AGRFQQRQGLKYCLPLTFCIHTGL [G3R],3.24
14,AGTFQQRQGLKYCLPLTFCIHTGL [G3T],3.31
15,AGQFQQRQGLKYCLPLTFCIHTGL [G3Q],4.36
16,AGVFQQRQGLKYCLPLTFCIHTGL [G3V],2.54
17,AGGFQARQGLKYCLPLTFCIHTGL [Q6A],2.26
18,AGGFQLRQGLKYCLPLTFCIHTGL [Q6L],3.23
19,AGGFQRRQGLKYCLPLTFCIHTGL [Q6R],2.77
20,AGGFQVRQGLKYCLPLTFCIHTGL [Q6V],2.68
21,AGGFQDRQGLKYCLPLTFCIHTGL [Q6D],1.89
22,AGGFQTRQGLKYCLPLTFCIHTGL [Q6T],2.67
23,AGGFQHRQGLKYCLPLTFCIHTGL [Q6H],3.73
24,AGGFQSRQGLKYCLPLTFCIHTGL [Q6S],2.81

row,Variant,protein stability index
1,AGGFQGRQGLKYCLPLTFCIHTGL [Q6G],2.7
2,AGGFQERQGLKYCLPLTFCIHTGL [Q6E],3.6
3,AGGFQIRQGLKYCLPLTFCIHTGL [Q6I],3.58
4,AGGFQWRQGLKYCLPLTFCIHTGL [Q6W],3.85
5,AGGFQMRQGLKYCLPLTFCIHTGL [Q6M],2.1
6,AGGFQPRQGLKYCLPLTFCIHTGL [Q6P],3.26
7,AGGFQKRQGLKYCLPLTFCIHTGL [Q6K],3.51
8,AGGFQNRQGLKYCLPLTFCIHTGL [Q6N],3.27
9,AGGFQCRQGLKYCLPLTFCIHTGL [Q6C],2.8
10,AGGFQYRQGLKYCLPLTFCIHTGL [Q6Y],2.09
11,AGGFQQFQGLKYCLPLTFCIHTGL [R7F],3.23
12,AGGFQQLQGLKYCLPLTFCIHTGL [R7L],3.44
13,AGGFQQPQGLKYCLPLTFCIHTGL [R7P],3.24
14,AGGFQQNQGLKYCLPLTFCIHTGL [R7N],2.95
15,AGGFQQVQGLKYCLPLTFCIHTGL [R7V],3.75
16,AGGFQQSQGLKYCLPLTFCIHTGL [R7S],2.33
17,AGGFQQIQGLKYCLPLTFCIHTGL [R7I],2.12
18,AGGFQQHQGLKYCLPLTFCIHTGL [R7H],2.74
19,AGGFQQGQGLKYCLPLTFCIHTGL [R7G],3.16
20,AGGFQQDQGLKYCLPLTFCIHTGL [R7D],2.64
21,AGGFQQEQGLKYCLPLTFCIHTGL [R7E],2.83
22,AGGFQQYQGLKYCLPLTFCIHTGL [R7Y],2.27
23,AGGFQQTQGLKYCLPLTFCIHTGL [R7T],2.6
24,AGGFQQCQGLKYCLPLTFCIHTGL [R7C],2.54

row,Variant,protein stability index
1,AGGFQQRQFLKYCLPLTFCIHTGL [G9F],2.58
2,AGGFQQRQLLKYCLPLTFCIHTGL [G9L],3.97
3,AGGFQQRQDLKYCLPLTFCIHTGL [G9D],2.68
4,AGGFQQRQHLKYCLPLTFCIHTGL [G9H],2.94
5,AGGFQQRQKLKYCLPLTFCIHTGL [G9K],2.74
6,AGGFQQRQELKYCLPLTFCIHTGL [G9E],1.87
7,AGGFQQRQCLKYCLPLTFCIHTGL [G9C],2.68
8,AGGFQQRQMLKYCLPLTFCIHTGL [G9M],3.48
9,AGGFQQRQILKYCLPLTFCIHTGL [G9I],2.28
10,AGGSQQRQGLKYCLPLTFCIHTGL [F4S],2.38
11,AGGDQQRQGLKYCLPLTFCIHTGL [F4D],1.87
12,AGGQQQRQGLKYCLPLTFCIHTGL [F4Q],2.37
13,AGGPQQRQGLKYCLPLTFCIHTGL [F4P],2.09
14,AGGYQQRQGLKYCLPLTFCIHTGL [F4Y],2.42
15,AGGEQQRQGLKYCLPLTFCIHTGL [F4E],3.03
16,AGGMQQRQGLKYCLPLTFCIHTGL [F4M],2.69
17,AGGIQQRQGLKYCLPLTFCIHTGL [F4I],3.07
18,AGGHQQRQGLKYCLPLTFCIHTGL [F4H],2.54
19,AGGCQQRQGLKYCLPLTFCIHTGL [F4C],2.66
20,AGGTQQRQGLKYCLPLTFCIHTGL [F4T],2.82
21,AGGRQQRQGLKYCLPLTFCIHTGL [F4R],2.36
22,AGGAQQRQGLKYCLPLTFCIHTGL [F4A],3.49
